In article PMC10104585, “Yeast PIC-Mediator structure with RNA polymerase II C-terminal domain” (Proceedings of the National Academy of Sciences of the …, 2023):

What follows are binders tested against T1, Rpb1 (RNA polymerase II subunit carrying the C-terminal repeat domain) (S. cerevisiae, UniProt P04050 1-1733) (assay: cryo-EM structure; PIC-cMed-nucleosome complex assembled from the prepared factors on a His4 promoter / Widom-601 nucleosome template; GraFix sucrose gradient with glutaraldehyde cross-linking; 100 mM KCl, 25 mM K-HEPES pH 7.5, 2 mM MgCl2, 1 mM TCEP; reconstructions at 3.0 Å (PIC-cMed) and 3.6 Å (PIC-cMed-nucleosome), focused maps to 2.9-3.3 Å). Conditions: both partners purified.
T1 construct: Rpb1, subunit of RNA polymerase II, S. cerevisiae, with its C-terminal repeat domain (CTD) of 26 heptapeptide repeats of consensus YSPTSPS; Stood in the assay as a subunit of Pol II within the PIC; CTD peptides 1, 2 and 3 are stretches of its CTD seen in the map (6, 3 and 2 repeats); their register within the CTD could not be assigned; also called Rpb1 CTD; Pol II CTD
T1 sequence (P04050 whole entry, the tested form may be a part): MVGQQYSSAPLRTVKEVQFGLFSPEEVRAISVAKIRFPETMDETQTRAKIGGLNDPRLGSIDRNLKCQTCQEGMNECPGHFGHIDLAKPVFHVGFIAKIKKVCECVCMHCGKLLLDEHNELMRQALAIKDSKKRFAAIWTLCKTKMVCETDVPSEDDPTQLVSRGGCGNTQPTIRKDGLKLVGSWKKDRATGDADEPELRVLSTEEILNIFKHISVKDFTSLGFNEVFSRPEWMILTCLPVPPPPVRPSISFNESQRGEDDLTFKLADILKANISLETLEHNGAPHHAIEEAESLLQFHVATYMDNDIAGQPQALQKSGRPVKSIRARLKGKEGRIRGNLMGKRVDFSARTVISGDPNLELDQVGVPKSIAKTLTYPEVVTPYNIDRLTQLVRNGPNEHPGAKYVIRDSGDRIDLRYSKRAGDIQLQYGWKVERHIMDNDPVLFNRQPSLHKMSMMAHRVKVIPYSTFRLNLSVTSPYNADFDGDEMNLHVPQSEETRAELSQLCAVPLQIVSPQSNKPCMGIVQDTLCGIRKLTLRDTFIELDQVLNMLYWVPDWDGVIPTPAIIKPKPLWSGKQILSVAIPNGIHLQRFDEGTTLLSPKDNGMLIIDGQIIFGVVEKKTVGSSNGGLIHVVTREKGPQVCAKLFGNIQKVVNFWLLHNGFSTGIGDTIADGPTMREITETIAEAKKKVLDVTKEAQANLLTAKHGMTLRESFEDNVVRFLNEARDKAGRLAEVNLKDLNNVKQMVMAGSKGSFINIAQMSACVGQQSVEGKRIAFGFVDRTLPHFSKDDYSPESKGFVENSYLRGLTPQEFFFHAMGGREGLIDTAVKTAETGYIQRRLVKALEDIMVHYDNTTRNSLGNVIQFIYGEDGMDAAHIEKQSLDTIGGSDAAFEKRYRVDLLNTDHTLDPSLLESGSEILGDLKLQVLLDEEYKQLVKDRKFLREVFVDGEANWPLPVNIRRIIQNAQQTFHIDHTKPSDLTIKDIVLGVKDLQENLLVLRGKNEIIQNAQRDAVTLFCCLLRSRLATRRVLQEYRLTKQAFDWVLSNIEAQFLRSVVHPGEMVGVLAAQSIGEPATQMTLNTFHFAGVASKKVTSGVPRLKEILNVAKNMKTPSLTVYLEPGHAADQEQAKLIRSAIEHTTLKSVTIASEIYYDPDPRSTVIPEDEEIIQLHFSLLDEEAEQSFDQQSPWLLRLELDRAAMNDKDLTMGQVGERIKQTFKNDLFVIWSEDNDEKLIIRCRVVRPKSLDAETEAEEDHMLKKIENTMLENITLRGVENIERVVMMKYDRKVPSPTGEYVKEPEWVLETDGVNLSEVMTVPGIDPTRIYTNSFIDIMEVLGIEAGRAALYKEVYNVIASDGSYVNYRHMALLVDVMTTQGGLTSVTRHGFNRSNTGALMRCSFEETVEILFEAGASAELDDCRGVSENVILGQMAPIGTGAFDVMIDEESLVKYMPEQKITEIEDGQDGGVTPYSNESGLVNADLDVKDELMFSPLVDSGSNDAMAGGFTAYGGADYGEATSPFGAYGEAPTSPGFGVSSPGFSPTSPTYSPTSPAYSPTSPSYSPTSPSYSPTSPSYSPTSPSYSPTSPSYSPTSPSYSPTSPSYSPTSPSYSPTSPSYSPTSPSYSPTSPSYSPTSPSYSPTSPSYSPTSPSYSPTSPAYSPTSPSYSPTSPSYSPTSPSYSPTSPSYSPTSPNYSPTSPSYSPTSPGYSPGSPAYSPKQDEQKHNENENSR

| binding result | Binder |
| --- | --- |
| binds | Med21 (natural protein, S. cerevisiae, Med21, Mediator subunit (hook domain), S. cerevisiae; Stood in the assay as a subunit of cMed) MTDRLTQLQICLDQMTEQFCATLNYIDKNHGFERLTVNEPQMSDKHATVVPPEEFSNTIDELSTDIILKTRQINKLIDSLPGVDVSAEEQLRKIDMLQKKLVEVEDEKIEAIKKKEKLLRHVDSLIEDFVDGIANSKKST |
| binds | Med17 (natural protein, S. cerevisiae, Med17, Mediator head module subunit, S. cerevisiae; Stood in the assay as a subunit of cMed) MTTEDPDSNHLSSETGIKLALDPNLITLALSSNPNSSLHSPTSDEPVPESAGKADTSIRLEGDELENKTKKDNDKNLKFLKNKDSLVSNPHEIYGSMPLEQLIPIILRQRGPGFKFVDLNEKELQNEIKQLGSDSSDGHNSEKKDTDGADENVQIGEDFMEVDYEDKDNPVDSRNETDHKTNENGETDDNIETVMTQEQFVKRRRDMLEHINLAMNESSLALEFVSLLLSSVKESTGMSSMSPFLRKVVKPSSLNSDKIPYVAPTKKEYIELDILNKGWKLQSLNESKDLLRASFNKLSSILQNEHDYWNKIMQSISNKDVIFKIRDRTSGQKLLAIKYGYEDSGSTYKHDRGIANIRNNIESQNLDLIPHSSSVFKGTDFVHSVKKFLRVRIFTKIESEDDYILSGESVMDRDSESEEAETKDIRKQIQLLKKIIFEKELMYQIKKECALLISYGVSIENENKVIIELPNEKFEIELLSLDDDSIVNHEQDLPKINDKRANLMLVMLRLLLVVIFKKTLRSRISSPHGLINLNVDDDILIIRPILGKVRFANYKLLLKKIIKDYVLDIVPGSSITETEVEREQPQENKNIDDENITKLNKEIRAFDKLLNIPRRELKINLPLTEHKSPNLSLMLESPNYCNALIHIKFSAGTEANAVSFDTTFSDFKEVEDFLHFIVAEYIQQKKV |
| binds | Med7 (natural protein, S. cerevisiae, UniProt Q08278 1-222, looked up, Med7, Mediator middle module subunit, S. cerevisiae; Stood in the assay as a subunit of cMed) MSNDPGNEVSSLYPPPPPYVKFFTQSNLEKLPKYKEKKAASAKQTAPNNSNGGSEEEITCALDYLIPPPMPKNQQYRAFGSIWQVKDQLPDLESMGLTQLYKKSTENESTNYQYKIQELRKLLKSLLLNYLELIGVLSINPDMYERKVENIRTILVNIHHLLNEYRPHQSRESLIMLLEEQLEYKRGEIREIEQVCKQVHDKLTSIQDTLRTGSQSPPSSSQ |
| binds | Med6 (natural protein, S. cerevisiae, Med6, Mediator head module subunit, S. cerevisiae; Stood in the assay as a subunit of cMed) MNVTPLDELQWKSPEWIQVFGLRTENVLDYFAESPFFDKTSNNQVIKMQRQFSQLNDPNAAVNMTQNIMTLPDGKNGNLEEEFAYVDPARRQILFKYPMYMQLEEELMKLDGTEYVLSSVREPDFWVIRKQRRTNNSGVGSAKGPEIIPLQDYYIIGANIYQSPTIFKIVQSRLMSTSYHLNSTLESLYDLIEFQPSQGVHYKVPTDTSTTATAATNGNNAGGGSNKSSVRPTGGANMATVPSTTNVNMTVNTMGTGGQTIDNGTGRTGNGNMGITTEMLDKLMVTSIRSTPNYI |

Further lines, the binder ahead of its results:

| Binder | binding result |
| --- | --- |
| Med8 (natural protein, S. cerevisiae, Med8, Mediator head module subunit, S. cerevisiae; Stood in the assay as a subunit of cMed) MSQSTASLVPEGNQGSLQEDVSFDFNGVPGQALDAVRMRLAQLTHSLRRIRDEMSKAELPQWYTLQSQLNVTLSQLVSVTSTLQHFQETLDSTVVYPLPKFPTTSHESLVTTLLRKKNIPEVDEWMKYVRETSGVTTALLKDEEIEKLLQQDREITNWARTTFRNEYGKHDFKNEESLSEEHASLLVRDSKPSKPFNVDDVLKFTFTGEKPIITGSTSTSSSN | binds |
| Med4 (natural protein, S. cerevisiae, Med4, Mediator middle module subunit, S. cerevisiae; Stood in the assay as a subunit of cMed) MSVQDTKAVEFSMGHIRSSSVSLVAEATSNTNSEDKLSKVQLYEDLCRYEDTLSKLVESVDRFKPNLDIAKDLIRTDEALFENVKLLAEYDNIYRNLQKIDKDSEELDSKTRKILEILNECHDELKALPMLEQVEFEKNTILQQRSKINSTELLDYATKLSKFTKIPPTFDKGAVGPNNFIWPAEDALRRGMLAMASLHSKELTRIPGEEVEETEVPTVPPSQSEEQKGQMAKKEGTPKTDSFIFDGTAKEVGDEADNTKDKEKEENNDDALDLDLDLFDPDDF | binds |
| Med10 (natural protein, S. cerevisiae, Med10, Mediator subunit (hook domain), S. cerevisiae; Stood in the assay as a subunit of cMed) MNGNSTNNEQLQQELATTQDQVASIIESFVELGVSIYDFPGTPEATKGMITNLQRNVDRLYKLNVRSNDPQSSLSKVDIPLEVVQYIEDGRNPDIYTREFVEAIRRSNQYQRGKMHGLKQLRDSLADKIVDEFPELKEPVEDIIKRTSPIDNVSNTH | binds |
